Our source for the Kd values is publication doi:10.1101/473132.

The assay has as its target H3K9me3 mononucleosome with one disulfide bridge between H3 I62C and H4 A33C (oxidized) (X. laevis). Description: fluorescence polarisation. On the technique in general: Fluorescence polarisation rises when a labelled molecule tumbles more slowly, as on binding a larger partner.

Sequence of Swi6 (S. pombe HP1 protein) (P40381 whole entry): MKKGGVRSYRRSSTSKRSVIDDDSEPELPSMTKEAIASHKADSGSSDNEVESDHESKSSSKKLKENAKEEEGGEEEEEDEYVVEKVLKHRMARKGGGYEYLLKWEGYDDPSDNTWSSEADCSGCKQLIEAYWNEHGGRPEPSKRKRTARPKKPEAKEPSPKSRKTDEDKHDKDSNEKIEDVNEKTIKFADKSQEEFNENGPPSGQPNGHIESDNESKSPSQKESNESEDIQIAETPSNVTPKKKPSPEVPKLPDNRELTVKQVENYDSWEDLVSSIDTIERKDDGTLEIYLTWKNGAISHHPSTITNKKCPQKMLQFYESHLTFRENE

The term Kd denotes the concentration at which binding is half-saturated. “Swi6 (S. pombe HP1 protein) (from UniProt P40381 1-328) (natural protein)” had an equilibrium dissociation constant (Kd) of 300 nM.
